Here are results for one molecule from patent publication US20220332804A1 (CSL INNOVATION, published 2022).

Assay in all cases: SPR, KD relative to WT C2;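 further: biacore SPR at 37 °C, anti-C2 mAbs captured via immobilised goat anti-human IgG, C2 alanine or serine surface mutants as analytes, 1:1 model fitted, double-referenced sensograms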
In one assay the target is T1, human C2 S720A (human, UniProt P06681 21-752).
T1 sequence: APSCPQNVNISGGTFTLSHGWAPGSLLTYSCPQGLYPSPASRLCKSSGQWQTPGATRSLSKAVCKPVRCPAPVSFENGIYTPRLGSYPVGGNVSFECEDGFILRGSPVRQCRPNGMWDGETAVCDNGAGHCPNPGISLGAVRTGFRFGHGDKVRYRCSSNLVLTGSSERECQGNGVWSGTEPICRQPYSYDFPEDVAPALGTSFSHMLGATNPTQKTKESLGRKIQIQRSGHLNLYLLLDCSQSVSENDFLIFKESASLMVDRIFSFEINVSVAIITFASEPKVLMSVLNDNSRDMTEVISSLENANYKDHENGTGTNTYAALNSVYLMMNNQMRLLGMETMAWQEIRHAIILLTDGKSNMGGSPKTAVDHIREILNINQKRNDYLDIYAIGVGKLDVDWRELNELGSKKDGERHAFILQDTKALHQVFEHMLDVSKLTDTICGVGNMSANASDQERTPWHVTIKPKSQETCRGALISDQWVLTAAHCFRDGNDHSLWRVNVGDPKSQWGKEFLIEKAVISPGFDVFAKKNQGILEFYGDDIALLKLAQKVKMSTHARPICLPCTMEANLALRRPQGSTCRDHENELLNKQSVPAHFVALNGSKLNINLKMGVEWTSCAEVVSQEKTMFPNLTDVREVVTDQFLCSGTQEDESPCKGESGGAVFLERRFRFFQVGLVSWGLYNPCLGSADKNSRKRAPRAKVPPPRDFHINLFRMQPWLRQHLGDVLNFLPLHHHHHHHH

For the next assay, the target named is T2, human C2 S428A (human, UniProt P06681 21-752).
T2 sequence: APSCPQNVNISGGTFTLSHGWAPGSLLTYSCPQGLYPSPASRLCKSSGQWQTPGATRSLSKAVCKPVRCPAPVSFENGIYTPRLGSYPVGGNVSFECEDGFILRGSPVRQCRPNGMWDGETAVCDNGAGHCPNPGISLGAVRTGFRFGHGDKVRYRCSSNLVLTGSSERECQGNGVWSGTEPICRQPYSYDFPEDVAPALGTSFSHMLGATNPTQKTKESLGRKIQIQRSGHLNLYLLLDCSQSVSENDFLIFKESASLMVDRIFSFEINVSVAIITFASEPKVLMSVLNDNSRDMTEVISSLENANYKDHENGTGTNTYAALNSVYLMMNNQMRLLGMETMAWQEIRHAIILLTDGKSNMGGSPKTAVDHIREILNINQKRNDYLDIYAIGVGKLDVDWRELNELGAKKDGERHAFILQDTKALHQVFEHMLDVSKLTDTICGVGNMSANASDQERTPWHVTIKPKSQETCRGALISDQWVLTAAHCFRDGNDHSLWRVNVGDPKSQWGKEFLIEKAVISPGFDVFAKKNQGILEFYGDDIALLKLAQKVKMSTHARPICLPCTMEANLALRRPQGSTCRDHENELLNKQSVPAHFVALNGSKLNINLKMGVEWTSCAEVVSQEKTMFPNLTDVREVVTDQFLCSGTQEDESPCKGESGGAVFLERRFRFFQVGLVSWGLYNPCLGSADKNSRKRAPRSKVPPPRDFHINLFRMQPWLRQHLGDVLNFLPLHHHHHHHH

A further assay has as its target T3, human C2 I438A (human, UniProt P06681 21-752).
T3 sequence: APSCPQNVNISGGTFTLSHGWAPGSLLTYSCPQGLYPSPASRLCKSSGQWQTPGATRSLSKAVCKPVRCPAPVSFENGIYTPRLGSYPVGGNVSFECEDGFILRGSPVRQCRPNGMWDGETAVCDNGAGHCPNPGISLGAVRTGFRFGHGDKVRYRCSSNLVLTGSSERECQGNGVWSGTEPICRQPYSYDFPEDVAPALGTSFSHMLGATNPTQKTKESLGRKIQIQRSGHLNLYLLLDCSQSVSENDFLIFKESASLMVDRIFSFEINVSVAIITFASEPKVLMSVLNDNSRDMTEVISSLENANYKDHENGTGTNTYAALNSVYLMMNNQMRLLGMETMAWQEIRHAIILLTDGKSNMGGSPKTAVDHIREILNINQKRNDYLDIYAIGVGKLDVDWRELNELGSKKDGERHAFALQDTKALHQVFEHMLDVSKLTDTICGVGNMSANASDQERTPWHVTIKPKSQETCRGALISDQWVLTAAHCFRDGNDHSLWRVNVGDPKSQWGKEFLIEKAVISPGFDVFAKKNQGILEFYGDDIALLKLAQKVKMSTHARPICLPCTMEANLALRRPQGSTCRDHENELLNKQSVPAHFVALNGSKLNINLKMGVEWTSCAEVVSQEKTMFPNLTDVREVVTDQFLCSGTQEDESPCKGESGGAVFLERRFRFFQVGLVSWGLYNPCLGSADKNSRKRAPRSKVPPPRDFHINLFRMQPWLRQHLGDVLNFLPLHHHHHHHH

A further assay deals with T4, human C2 M648A (human, UniProt P06681 21-752).
T4 sequence: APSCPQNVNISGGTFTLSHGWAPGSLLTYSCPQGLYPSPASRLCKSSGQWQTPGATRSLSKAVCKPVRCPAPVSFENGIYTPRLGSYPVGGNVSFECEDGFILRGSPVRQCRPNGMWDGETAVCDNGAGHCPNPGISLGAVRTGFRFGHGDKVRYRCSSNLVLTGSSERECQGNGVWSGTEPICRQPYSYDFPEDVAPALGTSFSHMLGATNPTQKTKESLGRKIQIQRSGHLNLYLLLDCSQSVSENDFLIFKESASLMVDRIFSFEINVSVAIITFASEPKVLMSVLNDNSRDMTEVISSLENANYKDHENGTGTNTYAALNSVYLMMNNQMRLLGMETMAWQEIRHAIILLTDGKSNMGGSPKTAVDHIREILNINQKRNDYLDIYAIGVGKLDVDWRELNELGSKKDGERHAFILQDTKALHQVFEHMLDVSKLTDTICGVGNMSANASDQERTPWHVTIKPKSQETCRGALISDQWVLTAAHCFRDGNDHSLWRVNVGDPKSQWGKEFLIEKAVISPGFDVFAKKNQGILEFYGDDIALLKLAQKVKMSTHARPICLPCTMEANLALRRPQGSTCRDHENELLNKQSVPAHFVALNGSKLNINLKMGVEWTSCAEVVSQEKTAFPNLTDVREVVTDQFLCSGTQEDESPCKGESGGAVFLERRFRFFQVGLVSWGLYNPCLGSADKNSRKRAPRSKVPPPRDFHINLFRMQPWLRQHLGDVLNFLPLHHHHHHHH

B1: RF16-226 (antibody, human IgG4 S228P, lambda)
heavy: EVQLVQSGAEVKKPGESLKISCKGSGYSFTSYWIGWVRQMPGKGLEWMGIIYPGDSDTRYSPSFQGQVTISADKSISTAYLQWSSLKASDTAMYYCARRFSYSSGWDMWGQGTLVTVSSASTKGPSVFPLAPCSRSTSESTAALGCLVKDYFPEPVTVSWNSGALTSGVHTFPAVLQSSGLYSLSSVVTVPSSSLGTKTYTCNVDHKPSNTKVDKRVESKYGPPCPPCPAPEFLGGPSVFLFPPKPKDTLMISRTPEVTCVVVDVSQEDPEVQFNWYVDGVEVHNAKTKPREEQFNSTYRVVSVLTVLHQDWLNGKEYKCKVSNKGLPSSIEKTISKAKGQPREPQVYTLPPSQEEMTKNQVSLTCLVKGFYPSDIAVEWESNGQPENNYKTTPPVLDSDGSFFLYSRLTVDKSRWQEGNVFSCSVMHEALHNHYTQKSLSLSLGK
light: SYELTQPPSVSVSPGQTARITCSGDALTSKYVAWYQQKSGLAPLLVIYEDTRRPSGIPAKFSGSSSGSVATLTISGAHGDDEADYYCYSTDASGHQRVFGGGTKLTVLSQPKAAPSVTLFPPSSEELQANKATLVCLISDFYPGAVTVAWKADGSPVKAGVETTKPSKQSNNKYAASSYLSLTPEQWKSHRSYSCQVTHEGSTVEKTVAPTECS
notes: pH-dependent anti-C2 antibody from a phage display library; also called WT
For B1, the Fold diff came out at 1 fold in the assay with human C2 S720A, 2 fold in the assay with human C2 S428A, 1 fold with human C2 I438A and 20 fold with human C2 M648A.
